Measurements as given in the supplement of paper PMC11246515.
± gives the standard deviation of the averaged measurements.

Assay: total protein half-life in vivo (active degradation + dilution); higher = more stable protein
[1] = E. coli NCM3722 delta-clpP delta-lon delta-hslV, growth: N-lim chemostat, doubling time 6 h
[2] = E. coli NCM3722 delta-clpP, growth: N-lim chemostat, doubling time 6 h
[3] = wild type E. coli NCM3722, growth: C-lim chemostat, doubling time 3 h
[4] = E. coli NCM3722 delta-hslV, growth: N-lim chemostat, doubling time 6 h
[5] = E. coli NCM3722 delta-lon, growth: N-lim chemostat, doubling time 6 h
[6] = E. coli NCM3722 delta-smpB, growth: N-lim chemostat, doubling time 6 h
[7] = wild type E. coli NCM3722, growth: C-lim chemostat, doubling time 12 h
[8] = wild type E. coli NCM3722, growth: N-lim chemostat, doubling time 6 h
[9] = wild type E. coli NCM3722, growth: N-lim chemostat, doubling time 12 h
[10] = wild type E. coli NCM3722, growth: P-lim chemostat, doubling time 6 h
[11] = wild type E. coli NCM3722, growth: P-lim chemostat, doubling time 12 h
[12] = wild type E. coli NCM3722, growth: C-lim chemostat, doubling time 6 h

Question: Which “total protein half-life in vivo” value [1] does the source give for “MSALNSLPLPVVRLLAFFHEELSERRPGRVPQTVQLWVGCLLVILISMTFEIPFVALSLAVLFYGIQSNAFYTKFVAILFVVATVLEIGSLFLIYKWSYGEPLIRLIIAGPILMGCMFLMRTHRLGLVFFAVAIVAIYGQTFPAMLDYPEVVVRLTLWCIVVGLYPTLLMTLIGVLWFPSRAISQMHQALNDRLDDAISHLTDSLAPLPETRIEREALALQKLNVFCLADDANWRTQNAWWQSCVATVTYIYSTLNRYDPTSFADSQAIIEFRQKLASEINKLQHAVAEGQCWQSDWRISESEAMAARECNLENICQTLLQLGQMDPNTPPTPAAKPPSMAADAFTNPDYMRYAVKTLLACLICYTFYSGVDWEGIHTCMLTCVIVANPNVGSSYQKMVLRFGGAFCGAILALLFTLLVMPWLDNIVELLFVLAPIFLLGAWIATSSERSSYIGTQMVVTFALATLENVFGPVYDLVEIRDRALGIIIGTVVSAVIYTFVWPESEARTLPQKLAGTLGMLSKVMRIPRQQEVTALRTYLQIRIGLHAAFNACEEMCQRVALERQLDSEERALLIERSQTVIRQGRDLLHAWDATWNSAQALDNALQPDRAGQFADALEKYAAGLATALSRSPQITLEETPASQAILPTLLKQEQHVCQLFARLPDWTAPALTPATEQAQGATQ” here?
Answer: 5.28 h

Question: What about the “total protein half-life in vivo” value [2] of the same sequence?
Answer: > 8 h

Question: And the “total protein half-life in vivo” value [3]?
Answer: 0.524 h

Question: With “MSANENNLIWIDLEMTGLDPERDRIIEIATLVTDANLNILAEGPTIAVHQSDEQLALMDDWNVRTHTASGLVERVKASTMGDREAELATLEFLKQWVPAGKSPICGNSIGQDRRFLFKYMPELEAYFHYRYLDVSTLKELARRWKPEILDGFTKQGTHQAMDDIRESVAELAYYREHFIKL [P0A784]” as the sequence, how does the “total protein half-life in vivo” value [2] read?
Answer: 4.86 ± 0.7 h

Question: And the “total protein half-life in vivo” value [4]?
Answer: 4.688 ± 0.041 h

Question: What about the “total protein half-life in vivo” value [5] of the same sequence?
Answer: 6.132 ± 0.0019 h

Question: And the “total protein half-life in vivo” value [6]?
Answer: 4.64 ± 0.34 h

Question: What about the “total protein half-life in vivo” value [3] of the same sequence?
Answer: 3.41 ± 0.36 h

Question: And the “total protein half-life in vivo” value [7]?
Answer: 13 ± 1.9 h

Question: And the “total protein half-life in vivo” value [8]?
Answer: 4.65 ± 0.63 h

Question: What about the “total protein half-life in vivo” value [9] of the same sequence?
Answer: 8.25 ± 0.81 h

Question: And the “total protein half-life in vivo” value [10]?
Answer: 5.87 ± 0.32 h

Question: What about the “total protein half-life in vivo” value [11] of the same sequence?
Answer: 13.6 ± 0.93 h

Question: What does the source list for “MSASALVCLAPGSEETEAVTTIDLLVRGGIKVTTASVASDGNLAITCSRGVKLLADAPLVEVADGEYDVIVLPGGIKGAECFRDSTLLVETVKQFHRSGRIVAAICAAPATVLVPHDIFPIGNMTGFPTLKDKIPAEQWLDKRVVWDARVKLLTSQGPGTAIDFGLKIIDLLVGREKAHEVASQLVMAAGIYNYYE”?
Answer: total protein half-life in vivo [1]: 5.064 ± 0.047 h; total protein half-life in vivo [4]: 5.39 ± 1.1 h; total protein half-life in vivo [5]: 4.534 ± 0.022 h; total protein half-life in vivo [6]: 4.23 ± 0.24 h; total protein half-life in vivo [3]: 2.69 ± 0.31 h; total protein half-life in vivo [12]: 5.15 ± 0.32 h; total protein half-life in vivo [7]: 9.53 ± 0.47 h; total protein half-life in vivo [8]: 4.21 ± 0.22 h; total protein half-life in vivo [9]: 7.09 ± 0.18 h; total protein half-life in vivo [10]: 5.81 ± 0.065 h

Question: What does the source list for “MSAVLTAEQALKLVGEMFVYHMPFNRALGMELERYEKEFAQLAFKNQPMMVGNWAQSILHGGVIASALDVAAGLVCVGSTLTRHETISEDELRQRLSRMGTIDLRVDYLRPGRGERFTATSSLLRAGNKVAVARVELHNEEQLYIASATATYMVG [P0ADP2]”?
Answer: total protein half-life in vivo [1]: 5.02 ± 0.33 h; total protein half-life in vivo [2]: 2.3 ± 0.16 h; total protein half-life in vivo [4]: 2.36 ± 0.08 h; total protein half-life in vivo [5]: 3.45 ± 0.78 h; total protein half-life in vivo [6]: 2.22 ± 0.052 h; total protein half-life in vivo [3]: 2.82 ± 0.14 h; total protein half-life in vivo [12]: 5.73 ± 0.62 h; total protein half-life in vivo [7]: 7.1 ± 2.8 h; total protein half-life in vivo [8]: 2.54 ± 0.22 h; total protein half-life in vivo [9]: 4.13 ± 0.42 h; total protein half-life in vivo [10]: 5 ± 0.1 h; total protein half-life in vivo [11]: 12.5 ± 1 h

Question: Which “total protein half-life in vivo” value [1] does the source give for “MSDDVALPLEFTDAAANKVKSLIADEDNPNLKLRVYITGGGCSGFQYGFTFDDQVNEGDMTIEKQGVGLVVDPMSLQYLVGGSVDYTEGLEGSRFIVTNPNAKSTCGCGSSFSI [P0ACC3]” here?
Answer: 5.22 ± 1.4 h

Question: What about the “total protein half-life in vivo” value [4] of the same sequence?
Answer: 2.03 ± 0.4 h

Question: And the “total protein half-life in vivo” value [5]?
Answer: 3.62 ± 0.25 h

Question: What about the “total protein half-life in vivo” value [6] of the same sequence?
Answer: 1.74 ± 0.059 h

Question: And the “total protein half-life in vivo” value [3]?
Answer: 1.62 ± 0.23 h

Question: And the “total protein half-life in vivo” value [12]?
Answer: 2.89 ± 0.6 h

Question: And the “total protein half-life in vivo” value [7]?
Answer: 3.62 ± 0.69 h

Question: What about the “total protein half-life in vivo” value [8] of the same sequence?
Answer: 1.71 ± 0.19 h

Question: What about the “total protein half-life in vivo” value [9] of the same sequence?
Answer: 2.43 ± 0.26 h

Question: And the “total protein half-life in vivo” value [10]?
Answer: 2.4 ± 0.14 h

Question: And the “total protein half-life in vivo” value [11]?
Answer: 4.84 ± 0.42 h

Question: What does the source list for “MSDISKASLPKAIFLMGPTASGKTALAIELRKILPVELISVDSALIYKGMDIGTAKPNAEELLAAPHRLLDIRDPSQAYSAADFRRDALAEMADITAAGRIPLLVGGTMLYFKALLEGLSPLPSADPEVRARIEQQAAEQGWESLHRQLQEVDPVAAARIHPNDPQRLSRALEVFFISGKTLTELTQTSGDALPYQVHQFAIAPASRELLHQRIEQRFHQMLASGFEAEVRALFARGDLHTDLPSIRCVGYRQMWSYLEGEISYDEMVYRGVCATRQLAKRQITWLRGWEGVHWLDSEKPEQARDEVLQVVGAIAG”?
Answer: total protein half-life in vivo [2]: 4.338 ± 0.019 h; total protein half-life in vivo [4]: 5.26 ± 1.1 h; total protein half-life in vivo [5]: 5.42 ± 0.37 h; total protein half-life in vivo [6]: 4.279 ± 0.03 h; total protein half-life in vivo [3]: 3.18 ± 0.12 h; total protein half-life in vivo [12]: 5.47 ± 0.15 h; total protein half-life in vivo [7]: 8.97 ± 0.41 h; total protein half-life in vivo [8]: 4.32 ± 0.4 h; total protein half-life in vivo [9]: 6.84 ± 1.1 h; total protein half-life in vivo [10]: 5.67 ± 0.43 h; total protein half-life in vivo [11]: 11.71 ± 0.1 h

Question: Which “total protein half-life in vivo” value [1] does the source give for “MSDKFGEGRDPYLYPGLDIMRNRLNIRQQQRLEQAAYEMTALRAATIELGPLVRGLPHLRTIHRQLYQDIFDWAGQLREVDIYQGDTPFCHFAYIEKEGNALMQDLEEEGYLVGLEKAKFVERLAHYYCEINVLHPFRVGSGLAQRIFFEQLAIHAGYQLSWQGIEKEAWNQANQSGAMGDLTALQMIFSKVVSEAGESE” here?
Answer: 4.96 ± 0.27 h

Question: What about the “total protein half-life in vivo” value [2] of the same sequence?
Answer: 4.09 ± 0.47 h

Question: And the “total protein half-life in vivo” value [4]?
Answer: 4.81 ± 0.64 h

Question: And the “total protein half-life in vivo” value [5]?
Answer: 4.4 ± 0.57 h

Question: And the “total protein half-life in vivo” value [6]?
Answer: 4.69 ± 0.42 h

Question: And the “total protein half-life in vivo” value [12]?
Answer: 6.07 ± 0.18 h

Question: And the “total protein half-life in vivo” value [7]?
Answer: 10.2 ± 1.9 h

Question: And the “total protein half-life in vivo” value [8]?
Answer: 4.39 ± 0.17 h

Question: What about the “total protein half-life in vivo” value [9] of the same sequence?
Answer: 7.12 ± 0.43 h

Question: And the “total protein half-life in vivo” value [10]?
Answer: 6.02 ± 0.4 h

Question: And the “total protein half-life in vivo” value [11]?
Answer: 7.72 ± 3.9 h

Question: Which “total protein half-life in vivo” value [10] does the source give for “MSDLLCSAKLGAMTLALLLSATSLSALASVTPDRTRLIFNESDKSISVTLRNNDPKLPYLAQSWIEDEKGNKITSPLTVLPPVQRIDSMMNGQVKVQGMPDINKLPADRESMFYFNVREIPPKSNKPNTLQIALQTRIKLFWRPKALEKVSMKSPWQHKVTLTRSGQAFTVNNPTPYYVIISNASAQKNGNPAAGFSPLVIEPKTTVPLNVKMDSVPVLTYVNDFGARMPLFFQCNGNSCQVDEEQSRKG” here?
Answer: 4.16 h

Question: For “MSDMNNPADDNNGAMDDLWAEALSEQKSTSSKSAAETVFQQFGGGDVSGTLQDIDLIMDIPVKLTVELGRTRMTIKELLRLTQGSVVALDGLAGEPLDILINGYLIAQGEVVVVADKYGVRITDIITPSERMRRLSR”, which “total protein half-life in vivo” value [1] is on record?
Answer: 5.45 ± 0.45 h

Question: And the “total protein half-life in vivo” value [6]?
Answer: > 8 h

Question: What about the “total protein half-life in vivo” value [3] of the same sequence?
Answer: 2.75 ± 0.5 h

Question: And the “total protein half-life in vivo” value [12]?
Answer: 4.23 ± 0.055 h

Question: And the “total protein half-life in vivo” value [7]?
Answer: 7.08 ± 1.4 h

Question: For “MSDNAQLTGLCDRFRGFYPVVIDVETAGFNAKTDALLEIAAITLKMDEQGWLMPDTTLHFHVEPFVGANLQPEALAFNGIDPNDPDRGAVSEYEALHEIFKVVRKGIKASGCNRAIMVAHNANFDHSFMMAAAERASLKRNPFHPFATFDTAALAGLALGQTVLSKACQTAGMDFDSTQAHSALYDTERTAVLFCEIVNRWKRLGGWPLSAAEEV”, which “total protein half-life in vivo” value [1] is on record?
Answer: 5.4962 ± 0.0014 h

Question: What about the “total protein half-life in vivo” value [2] of the same sequence?
Answer: 5.43 ± 0.51 h

Question: And the “total protein half-life in vivo” value [4]?
Answer: 5.13 h

Question: And the “total protein half-life in vivo” value [5]?
Answer: 6.1 h

Question: What about the “total protein half-life in vivo” value [3] of the same sequence?
Answer: 2.54 h

Question: And the “total protein half-life in vivo” value [12]?
Answer: 5.95 ± 0.48 h

Question: What about the “total protein half-life in vivo” value [8] of the same sequence?
Answer: 5.89 h

Question: And the “total protein half-life in vivo” value [9]?
Answer: 8.59 h

Question: What about the “total protein half-life in vivo” value [10] of the same sequence?
Answer: 5.17 h

Question: What about the “total protein half-life in vivo” value [11] of the same sequence?
Answer: 12 ± 0.56 h
